Experimental data reported in patent US20260062456A1.
Values joined by “and” are separate entries in the source; they are usually repeats but may differ in a detail not shown here. Equal entries are not always repeated.

Legend:
PD-1 (human) = PD-1 (human) (UniProt Q15116); test: cell-based or functional assay
[1] = biological target: human PD-1 and human TIGIT both stably expressed on Jurkat cells (Jurkat/PD-1/TIGIT cells); test: flow cytometry, Jurkat/PD-1/TIGIT cells, 20 nM
[2] = biological target: CD112R endogenously expressed on Jurkat/IL-2 reporter cells (Jurkat parental) (UniProt Q6DKI7); test: flow cytometry, Jurkat parental
rB7H6.Fc (human) = biological target: T1, rB7H6.Fc (human) (UniProt Q68D85); test: flow cytometry of yeast display strain stained with 16.6 nM rB7H6.Fc
T1 sequence (looked up): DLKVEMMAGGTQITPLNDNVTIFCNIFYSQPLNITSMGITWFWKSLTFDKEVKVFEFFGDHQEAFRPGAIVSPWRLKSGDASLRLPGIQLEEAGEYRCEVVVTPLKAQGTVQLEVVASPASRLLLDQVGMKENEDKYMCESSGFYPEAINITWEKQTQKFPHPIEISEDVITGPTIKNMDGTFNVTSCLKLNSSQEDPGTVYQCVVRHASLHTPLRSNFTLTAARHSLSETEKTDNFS

[3] = biological target: PD-1-Fc (recombinant PD-1-Fc fusion protein) (human) (UniProt Q15116); test: ForteBio Octet, PD-1-Fc on sensor
CD226 = biological target: T2, CD226 (UniProt Q15762); test: flow cytometry, cells expressing CD226
T2 sequence (looked up): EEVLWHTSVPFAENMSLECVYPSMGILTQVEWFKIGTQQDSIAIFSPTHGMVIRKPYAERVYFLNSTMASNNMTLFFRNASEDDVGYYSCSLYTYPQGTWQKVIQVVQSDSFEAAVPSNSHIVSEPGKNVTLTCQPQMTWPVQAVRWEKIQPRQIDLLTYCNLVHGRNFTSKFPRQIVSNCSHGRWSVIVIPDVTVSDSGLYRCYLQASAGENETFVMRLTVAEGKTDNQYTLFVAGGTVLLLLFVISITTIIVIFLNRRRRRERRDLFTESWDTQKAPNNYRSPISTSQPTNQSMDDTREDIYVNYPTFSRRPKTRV

Chain of PD-1 (human) (Q15116 25-288): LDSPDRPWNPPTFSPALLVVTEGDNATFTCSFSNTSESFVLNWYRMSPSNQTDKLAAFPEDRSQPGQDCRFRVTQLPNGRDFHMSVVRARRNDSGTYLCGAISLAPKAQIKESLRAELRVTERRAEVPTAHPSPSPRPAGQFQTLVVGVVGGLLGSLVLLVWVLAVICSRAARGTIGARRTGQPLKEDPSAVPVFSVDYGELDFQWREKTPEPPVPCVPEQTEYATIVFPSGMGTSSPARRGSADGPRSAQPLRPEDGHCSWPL
Chain of PD-1-Fc (recombinant PD-1-Fc fusion protein) (human) (Q15116 25-167 limits assumed): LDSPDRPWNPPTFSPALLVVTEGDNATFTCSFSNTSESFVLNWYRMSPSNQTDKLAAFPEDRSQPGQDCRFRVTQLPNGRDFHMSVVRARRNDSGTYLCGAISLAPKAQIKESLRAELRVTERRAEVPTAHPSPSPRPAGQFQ
Chain of CD112R endogenously expressed on Jurkat/IL-2 reporter cells (Jurkat parental) (Q6DKI7 whole entry): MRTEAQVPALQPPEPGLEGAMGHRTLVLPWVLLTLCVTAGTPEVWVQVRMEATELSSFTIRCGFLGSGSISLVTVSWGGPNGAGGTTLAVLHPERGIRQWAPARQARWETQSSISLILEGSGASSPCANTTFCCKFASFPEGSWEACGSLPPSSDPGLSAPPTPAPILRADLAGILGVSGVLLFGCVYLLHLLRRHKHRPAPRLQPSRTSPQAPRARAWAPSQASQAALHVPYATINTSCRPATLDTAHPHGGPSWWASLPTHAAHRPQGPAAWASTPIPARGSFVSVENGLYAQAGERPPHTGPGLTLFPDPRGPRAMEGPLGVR

Row | Substance | Average Relative Luminescence Units (PD-1 (human)) | Fold increase in IL2 reporter signal (PD-1 (human)) | further results
1 | variant PD-L1 IgV-Fc T19I, E27G, N45I, V50A, N78I, M97K (Fc fusion) | 2050 RLU | 0.92 fold | 
2 | variant PD-L1 IgV-Fc I20L, D43G, N45D, V58A, N78I (Fc fusion) | 4190 RLU | 1.88 fold | 
3 | Fc Control (homodimer) (from UniProt P0DOX5 218-449) |  |  | MFI at 20 nM [1]: 478 MFI
4 | variant PD-L1 IgV-Fc A33D, D43G, N45D, V58A, S75P (Fc fusion) | 2310 RLU | 1.04 fold | 
5 | variant PD-L1 IgV-Fc I20L, N45T, N78I (Fc fusion) | 2070 RLU | 0.93 fold | 
6 | variant PD-L1 IgV-Fc A33D, N45T (Fc fusion) | 2000 RLU | 0.9 fold | 
7 | non-stack variant PD-L1 IgV-Fc control (D43G/N45D/L56Q/V58A/G101G-ins (G101GG)) (Fc fusion) |  |  | MFI at 33.3nM [2]: 100 MFI; MFI at 20 nM [1]: 41400 MFI
8 | variant PD-L1 IgV-Fc A33D, S75P, D85E (Fc fusion) | 2220 RLU | 0.99 fold | 
9 | variant PD-L1 IgV-Fc A33D, E53V (Fc fusion) | 2140 RLU | 0.96 fold | 
10 | variant PD-L1 IgV-Fc I20L, D43G, N45D, V58A, N78I, D90G, G101D (Fc fusion) | 2000 RLU | 0.9 fold | 
11 | variant PD-L1 IgV-Fc D43G, N45D, L56Q, V58A, G101G-ins (G101GG) (Fc fusion) | 3930 RLU | 1.76 fold | 
12 | variant PD-L1 IgV-Fc I20L, I36T, N45D (SEQ ID NO 254) (Fc fusion) | 2110 RLU | 0.95 fold | 
13 | variant PD-L1 IgV-Fc M18I, M41K, D43G, H51R, N78I (Fc fusion) | 2120 RLU | 0.95 fold | 
14 | variant PD-L1 IgV-Fc I20L, I36T, N45T, V50A (Fc fusion) | 2160 RLU | 0.97 fold | 
15 | variant PD-L1 IgV-Fc E27G, N45T, K57R (Fc fusion) | 2030 RLU | 0.91 fold | 
16 | variant PD-L1 IgV-Fc I20L, I36T, N45D (SEQ ID NO 298) (Fc fusion) | 2210 RLU | 0.99 fold | 
17 | variant PD-L1 IgV-Fc N45T, N78I (Fc fusion) | 2180 RLU | 0.98 fold | 
18 | variant PD-L1 IgV-Fc I20L, E27G, N45T, V50A (Fc fusion) | 1800 RLU | 0.81 fold | 
19 | variant PD-L1 IgV-Fc K23R, D43G, N45D (Fc fusion) | 2360 RLU | 1.06 fold | 
20 | variant PD-L1 IgV-Fc N45T, V50A, N78I (Fc fusion) | 1900 RLU | 0.85 fold | 
21 | parental NKp30 strain (yeast-displayed wild-type NKp30 IgC-like domain) (from UniProt O14931 19-134) (receptor) |  |  | MFI (rB7H6.Fc (human)): 90 MFI
22 | variant PD-L1 IgV-Fc E27G, N45T, M97I (Fc fusion) | 1970 RLU | 0.88 fold | 
23 | variant PD-L1 IgV-Fc E40G, D43V, N45T, V50A (Fc fusion) | 2220 RLU | 0.99 fold | 
24 | variant PD-L1 IgV-Fc N45T (Fc fusion) | 2190 RLU | 0.98 fold | 
25 | variant PD-L1 IgV-Fc D43G, N45D, V58A (Fc fusion) | 2460 RLU | 1.11 fold | 
26 | variant PD-L1 IgV-Fc Y14S, K28E, N45T (Fc fusion) | 2150 RLU | 0.97 fold | 
27 | variant PD-L1 IgV-Fc I20L, E27G, D43G, N45D, V58A, N78I (Fc fusion) | 4590 RLU | 2.06 fold | 
28 | variant PD-L1 IgV-Fc E27G, N45T, V50A (Fc fusion) | 2000 RLU | 0.9 fold | 

Row | Substance | Average Relative Luminescence Units (PD-1 (human)) | Fold increase in IL2 reporter signal (PD-1 (human)) | further results
29 | variant PD-L1 IgV-Fc K28N, M41V, N45T, H51N, K57E (Fc fusion) | 2350 RLU | 1.05 fold | 
30 | variant PD-L1 IgV-Fc I20L, K23E, D43G, N45D, V50A, N78I (Fc fusion) | 3590 RLU | 1.61 fold | 
31 | variant PD-L1 IgV-Fc N45T, L74P, S75P (Fc fusion) | 2030 RLU | 0.91 fold | 
32 | variant PD-L1 IgV-Fc V11A, I20L, E27G, D43G, N45D, H51Y, S99G (Fc fusion) | 3380 RLU | 1.52 fold | 
33 | variant PD-L1 IgV-Fc I20L, E27G, D43G, N45T, V50A (Fc fusion) | 2010 RLU | 0.9 fold | 
34 | Wild-type CD155-ECD-Fc (from UniProt P15151 21-343) (Fc fusion) |  |  | MFI at 20 nM [1]: 1200 MFI
35 | variant PD-L1 IgV-Fc I20L, N45T (Fc fusion) | 2180 RLU | 0.98 fold | 
36 | variant PD-L1 IgV-Fc N78L (Fc fusion) | 2240 RLU | 1.01 fold | 
37 | variant PD-L1 IgV-Fc A33D, N78S (Fc fusion) | 2060 RLU | 0.92 fold | 
38 | variant PD-L1 IgV-Fc N45T, S75P (Fc fusion) | 1960 RLU | 0.88 fold | 
39 | variant PD-L1 IgV-Fc I20L, I36T, N45D, I47T (Fc fusion) | 2250 RLU | 1.01 fold | 
40 | variant PD-L1 IgV-Fc V11E, I20L, I36T, N45D, H60R, S75P (Fc fusion) | 2280 RLU | 1.02 fold | 
41 | PD-L2 IgV-Fc variant H15Q (Fc fusion) |  |  | Fortebio binding to PD-1-Fc Response Units (Response Units) [3]: 0.007
42 | variant PD-L1 IgV-Fc N45T, V50A (Fc fusion) | 2080 RLU and 2200 RLU | 0.93 fold and 0.99 fold | 
43 | variant PD-L1 IgV-Fc K23R, N45T, N78I (Fc fusion) | 2690 RLU | 1.21 fold | 
44 | Full length ECD of PD-L1 (R&D Systems) (from UniProt Q9NZQ7 19-238) (Fc fusion) |  |  | MFI at 20 nM [1]: 10400 MFI
45 | variant PD-L1 IgV-Fc I20L, D43G, N45D, N78I (Fc fusion) | 3470 RLU | 1.56 fold | 
46 | variant PD-L1 IgV-Fc M41K (Fc fusion) | 2150 RLU | 0.97 fold | 
47 | variant PD-L1 IgV-Fc I20L, K23E, D43G, N45D, V58A, N78I (Fc fusion) | 3510 RLU | 1.57 fold | 
48 | variant PD-L1 IgV-Fc E27G, N45T, V50A, N78I (Fc fusion) | 1960 RLU | 0.88 fold | 
49 | variant PD-L1 IgV-Fc I20L, A33D, D43G, N45D, V58A, N78I (Fc fusion) | 4380 RLU | 1.97 fold | 
50 | variant PD-L1 IgV-Fc I20L, M41K, D43G, N45D (Fc fusion) | 2110 RLU | 0.95 fold | 
51 | variant PD-L1 IgV-Fc I20L, K28E, D43G, N45D, V58A, Q89R, G101G-ins (G101GG) (Fc fusion) | 4290 RLU | 1.93 fold | 
52 | variant PD-L1 IgV-Fc A33D, S75P (SEQ ID NO 287) (Fc fusion) | 2040 RLU | 0.92 fold | 
53 | variant CD155 IgV-Fc V9L, V11M, P18S, N35S, S54G, Q62K, L79P, L104M, T107M, V115M (Fc fusion) |  |  | MFI at 25 nM (CD226): 2320 MFI
54 | variant PD-L1 IgV-Fc A33D, N78I (Fc fusion) | 2060 RLU | 0.92 fold | 
55 | PD-L2 IgV-Fc variant H15Q, S67L, R76G, I85F (Fc fusion) |  |  | Fortebio binding to PD-1-Fc Response Units (Response Units) [3]: 0.025
